These results are taken from article PMC6908968 (Cell, 2019).

The target in experiment [1] is EBOV GP ectodomain residues 1-636 (GPec) (Zaire ebolavirus, strain  …, UniProt Q05320).
Experiment [2] addresses T1, thermolysin-cleaved EBOV GP on Jurkat-GP cells (cleaved GP) (Zaire ebolavirus, Makona (GP1 core …, strain)).
T1 chain 1: not shown
T1 chain 2: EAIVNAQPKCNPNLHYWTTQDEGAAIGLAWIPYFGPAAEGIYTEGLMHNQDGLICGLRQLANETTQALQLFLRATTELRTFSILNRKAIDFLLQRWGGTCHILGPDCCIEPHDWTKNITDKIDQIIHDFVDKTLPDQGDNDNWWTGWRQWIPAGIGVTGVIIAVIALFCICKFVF

B1: 5.6.c2686 (antibody, V domains shown)
VH: QVQLQESGPGLVKPSGTLSLTCAVSGGSITSSDWWSWVRQTPGKGLEWIGQIYSGGMTDYNPSLKSRVTMSLDKSKNQFSVKLNSVTAADTAVYYCARHRLNAEMYCSGGSCYPADSNWFDPWGQGTLVTVSS
VL: DIQMTQSPSSLSASVGDRVTITCRASQSISTYLNWYQQKPGKAPKLLIYATSSLQSGVPSRFSGSGSGTDFTFTISSLQPEDFATYYCQQSYSTPFTFGPGTKVDIK
Take B1: the binding result in experiment [1] and in experiment [2] was “binds” throughout.

B2: 5.6.c2682 (antibody, V domains shown)
VH: QVQLVESGGGVVQPGRSLRLSCAASGFTFSNYAMHWVRQAPGKGLEWVAVTSDDKDNRYYADSVKGRFIISRDNSKNTLYLQMNSLRAEDTAVYHCAKDFEVFSSIFNGAYDSWGQGTLVIVSS
VL: EVVMTQSPATLSVSPGERATLSCRASQSVGFNLAWYQQKPGQAPRLLIYDASTRATGIPARFSGSGSGTEFTLTISSLQSGDFAVYYCQQYNNWPPYTFGQGTKLEIK
As for B2, the binding result in experiment [1] and in experiment [2] was “binds” each time.

B3: 5.6.c2633 (antibody, V domains shown)
VH: EVQLVQSGGGLVQPGGSLTLSCAASGFTFTDHWIHWVRQAPGKGLEWVANVKPDGSEKYYVDSVKGRFTISRDNAKKSLSLQMNSLRADDTAVYYCARSQLEGLGDLFYYNFGLDVWGQGTTVTVSS
VL: EIVMTQSPATLSVSPGERATLSCRASQSVNSNLAWYQQKPGQAPRLLIYGASTRATGIPARFSGRGSGTDFTLTISSLQSEDFALYYCQQYNTWPPLTFGGGTKVEIN
Consider B3, for which the binding result in experiment [1] and in experiment [2] was “binds” throughout.

B4: 5.6.c2636 (antibody, V domains shown)
VH: QVQLVQSGAEVKKPGASVKVSCKASGYTFTDYYMHWVRQAPGQGLEWLGIIIPTGTLSYAQKFQGRVTMTSDTSTNTFYMELRSLRSEDTAVYFCAREKSRDFDWELFDYWGQGTLVTVSS
VL: QSVLTQPPSASGTPGQRITISCSGSSSNIGNNAVSWYQQIPGMAPKLLIYSSNQRPSGVPDRFSGSKSGTSASLAISGLQSEDETDYYCAAWDDSLNGPVFGGGTKVTVL
For B4, the binding result in experiment [1] and in experiment [2] was “binds” each time.

B5: 5.6.c2685 (antibody, V domains shown)
VH: EVQLVESGGGLVQPGGSLRLSCAASGFTFSRSWMNWVRQAPGKGLEWVANIKQDGSEKYYVDSVKGRFTISRDNAKNSLYLQMNSLRAEDTGVYYCAKATVTTELTFFYYYALDVWGQGTTVTVSS
VL: EIVMTQSPATLSVSPGERATLSCRASQSINNNLAWYQQKPGQAPRLLISDASTRATGVPARFSGSGSGTEFTLTISSLQSEDSAVYHCQQYNTWPPFTFGGGTKVEIK
On to B5, for which the binding result in experiment [1] and in experiment [2] was “binds” in each case.

B6: 5.6.c2644 (antibody, V domains shown)
VH: QVQLVQSGAEVKKPGASVKVSCKASGYTFSNYGITWVRQAPGQGLEWMGWISAYNGNTKYAQKVQGRVTLSTDTSTSTAYMELRSLRSDDTAIYYCARDPGMITPGGVIEHWGQGTLVTVSS
VL: DIQMTQSPSSLSASVGDRVTVTCRASQGISNYLAWYQQKPGKVPKLLIYAASTLHSGVPSRFSGSGSGTDFTLTISSLQPEDVATYVCHNYNNAPRTFGQGTKVEIK
As for B6, the binding result in experiment [1] and in experiment [2] was “binds” in each case.

B7: 5.6.c2627 (antibody, V domains shown)
VH: QVQLVQSGAEVKKPGSSVKVSCKASGGTFSTYGFIWVRQAPGQGLDWMGGIIPIFDKTNYGQRFQGRVTITADKSTSTVHMELSSLRSEDTAVYYCARCRSGFKDPSGYFYYAMDVWGQGTTVTVSS
VL: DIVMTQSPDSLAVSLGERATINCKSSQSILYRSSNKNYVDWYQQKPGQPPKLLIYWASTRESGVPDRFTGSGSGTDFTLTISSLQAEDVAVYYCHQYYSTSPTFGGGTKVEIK
Take B7: the binding result in experiment [1] and in experiment [2] was “binds” in each case.

B8: 5.6.c2670 (antibody, V domains shown)
VH: QVQLEQWGAGLLKPSETLSLTCGVNGGSFSGSYWIWIRQSPGKGLEWIGEISHSGSTNSNPSLKSRVTISVDTSKNHFSLTLSSVTAADTAVYYCATSTLDSSSVFYYSYGLDVWGQGTTVTVSS
VL: DIQMTQSPSSVSASVGDRVTITCRASQDISSWLAWYQQKPGRAPNLLIYAASSLLSGVPSRFSGSGSGTDFTLTISSLQPGDSATYYCQQGHSLPLTFGGGTKVEIR
With B8, the binding result in experiment [1] and in experiment [2] was “binds” in each case.
